For 2 substances, Kd, Ki and IC50 results are on record in PMC3717276, “Optimization and validation of mitochondria-based functional assay as a useful tool to identify BH3-like molecules selectively targeting anti-apoptotic Bcl-2 proteins” (BMC Biotechnology, 2013).

pIC50, pKd, pKi: −log10 of the molar value.

The target in assay [1] is Human Bcl-2 protein (isoform 2 construct), N-terminal 6xHis tagged recombinant protein (human). The experiment in a line: fluorescence polarisation; saturation experiments with FAM-Bid and Mcl-1 or Bcl-2 protein; assay buffer 100 mM potassium phosphate, pH 7.5, 100 ug/ml bovine gamma globulin, 0.02% sodium azide.
Assay [2] shares this target. The assay is described as follows: fluorescence polarisation; competition: Mcl-1 (20 nM) or Bcl-2 (40 nM) pre-incubated with FAM-Bid (2 nM and 2.5 nM), tested BH3 peptide added, 2-3 h; 100 mM potassium phosphate, pH 7.5, 100 ug/ml bovine gamma globulin, 0.02% sodium azide; Ki calculated from IC50.
Assay [3] shares this target. The assay is described as follows: SPR; competitive solution binding: protein (20 nM) pre-incubated with tested BH3 peptide for at least 30 min, injected over immobilised biotin-Bim BH3 peptide; response at 30 s of dissociation.

For the substance “21-residue Bid BH3 peptide labeled at the N-terminus with 6-carboxyfluorescein succinimidyl ester (FAM-Bid)”, the pKd in assay [1] was 8.20.

Bid BH3 peptide (residues 79-99): in assay [2], the pKi was 7.95. Further, the pIC50 in assay [3] is 7.29.
